Results published in IntAct's records for PubMed 16339850.

B1: E3 ubiquitin-protein ligase COP1 (Arabidopsis thaliana (Mouse-ear cress)), P43254 (parent)
chain: MEEISTDPVVPAVKPDPRTSSVGEGANRHENDDGGSGGSEIGAPDLDKDLLCPICMQIIKDAFLTACGHSFCYMCIITHLRNKSDCPCCSQHLTNNQLYPNFLLDKLLKKTSARHVSKTASPLDQFREALQRGCDVSIKEVDNLLTLLAERKRKMEQEEAERNMQILLDFLHCLRKQKVDELNEVQTDLQYIKEDINAVERHRIDLYRARDRYSVKLRMLGDDPSTRNAWPHEKNQIGFNSNSLSIRGGNFVGNYQNKKVEGKAQGSSHGLPKKDALSGSDSQSLNQSTVSMARKKRIHAQFNDLQECYLQKRRQLADQPNSKQENDKSVVRREGYSNGLADFQSVLTTFTRYSRLRVIAEIRHGDIFHSANIVSSIEFDRDDELFATAGVSRCIKVFDFSSVVNEPADMQCPIVEMSTRSKLSCLSWNKHEKNHIASSDYEGIVTVWDVTTRQSLMEYEEHEKRAWSVDFSRTEPSMLVSGSDDCKVKVWCTRQEASVINIDMKANICCVKYNPGSSNYIAVGSADHHIHYYDLRNISQPLHVFSGHKKAVSYVKFLSNNELASASTDSTLRLWDVKDNLPVRTFRGHTNEKNFVGLTVNSEYLACGSETNEVYVYHKEITRPVTSHRFGSPDMDDAEEEAGSYFISAVCWKSDSPTMLTANSQGTIKVLVLAA
partner: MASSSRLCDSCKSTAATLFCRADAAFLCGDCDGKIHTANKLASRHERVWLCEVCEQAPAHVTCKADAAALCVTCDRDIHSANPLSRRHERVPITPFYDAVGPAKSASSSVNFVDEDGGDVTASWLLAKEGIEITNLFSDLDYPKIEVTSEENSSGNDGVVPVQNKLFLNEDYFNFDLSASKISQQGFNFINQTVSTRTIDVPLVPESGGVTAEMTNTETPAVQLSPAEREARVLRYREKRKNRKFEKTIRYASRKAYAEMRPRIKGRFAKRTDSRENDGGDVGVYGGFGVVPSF
B2: Zinc finger protein CONSTANS-LIKE 3 (Arabidopsis thaliana (Mouse-ear cress)), Q9SK53 (parent)
chain: B1 partner
partner: B1 chain

Variants of: B1
Details: with col3_arath COL3, Q9SK53

How did the “effect of a mutation on the interaction” value turn out when G524E was run?
The value was “disrupting interaction strength”.

Variants of: B2
Details: with cop1_arath COP1, P43254

V291A;P292A was tested. Which “effect of a mutation on the interaction” value did it give?
Its value is “disrupting interaction”.
